This note sets out measurements from the array DNA melting data of Ke et al..

A short description of this data set: melting temperature; melt of duplexes. Particulars: sodium 0.0675 M; strand 1 µM.
As to “CGACGTGCACAATGTGCTG+CAGCACATCTAGCACGTCG ((((((((...((((((((+))))))))...))))))))”, the melting temperature (Tm) (commonly the temperature at which the thermal transition is half complete) stood at 45.9 °C.

In the case of “CGACGTGCACTATGTGCTG+CAGCACATCTTGCACGTCG (((((((((..((((((((+))))))))..)))))))))”, the Tm came out at 46.5 °C. The result for “CGACGTGCGCAATGTGCTG+CAGCACATGGGGCACGTCG ((((((((.(.((((((((+)))))))).).))))))))” reads 56.5 °C; that for “CGACGTGCTTTATGTGCTG+CAGCACATTGTGCACGTCG ((((((((...((((((((+))))))))...))))))))”, 45.1 °C. For the substance “CGACGTGCGTAATGTGCTG+CAGCACATCAGGCACGTCG ((((((((.(.((((((((+)))))))).).))))))))”, the Tm was determined as 51.5 °C. Consider “CGACGTGCACGATGTGCTG+CAGCACATGAGGCACGTCG ((((((((...((((((((+))))))))...))))))))”, for which the Tm is 48.4 °C. Consider “CGACGTGCTGAATGTGCTG+CAGCACATAGTGCACGTCG ((((((((...((((((((+))))))))...))))))))”, for which the Tm is 45.3 °C.

In the case of “CGACGTGCGGTATGTGCTG+CAGCACATTTGGCACGTCG ((((((((...((((((((+))))))))...))))))))”, the melting temperature (Tm) is 49.9 °C. As for “CGACGTGCTACATGTGCTG+CAGCACATTACGCACGTCG ((((((((...((((((((+))))))))...))))))))”, the Tm is 48.7 °C.

Consider “CGACGTGCCAAATGTGCTG+CAGCACATCGAGCACGTCG ((((((((...((((((((+))))))))...))))))))”, for which the Tm worked out at 49.6 °C. The same measure for “CGACGTGCGCCATGTGCTG+CAGCACATCAGGCACGTCG ((((((((...((((((((+))))))))...))))))))”: 47.8 °C; for “CGACGTGCACTATGTGCTG+CAGCACATTAAGCACGTCG ((((((((...((((((((+))))))))...))))))))”: 44.3 °C. Regarding “CGACGTGCTGAATGTGCTG+CAGCACATCCCGCACGTCG ((((((((.(.((((((((+)))))))).).))))))))”, the Tm was found to be 51 °C. The same measure for “CGACGTGCGGCATGTGCTG+CAGCACATGTGGCACGTCG ((((((((..(((((((((+)))))))))..))))))))”: 56.8 °C.

Take “CGACGTGCGCGATGTGCTG+CAGCACATTCGGCACGTCG ((((((((...((((((((+))))))))...))))))))”: the melting temperature (Tm) was 53.2 °C.

Consider “CGACGTGCACCATGTGCTG+CAGCACATGTTGCACGTCG (((((((((.(((((((((+))))))))).)))))))))”, for which the midpoint of thermal melting (Tm) stood at 55 °C.

As for “CGACGTGCCGAATGTGCTG+CAGCACATCGTGCACGTCG ((((((((...((((((((+))))))))...))))))))”, the melting temperature (Tm) worked out at 51.9 °C. Regarding “CGACGTGCTTTATGTGCTG+CAGCACATAATGCACGTCG ((((((((.((((((((((+)))))))))).))))))))”, the Tm is 55.1 °C. The result for “CGACGTGCTCTATGTGCTG+CAGCACATTAAGCACGTCG (((((((((..((((((((+))))))))..)))))))))” reads 51.1 °C. Turning to “CGACGTGCTGTATGTGCTG+CAGCACATATCGCACGTCG ((((((((..(((((((((+)))))))))..))))))))”, the Tm came out at 50.9 °C.

Regarding “CGACGTGCACCATGTGCTG+CAGCACATGCGGCACGTCG ((((((((..(((((((((+)))))))))..))))))))”, the Tm turned out to be 50.4 °C. Turning to “CGACGTGCCACATGTGCTG+CAGCACATTAGGCACGTCG (((((((((..((((((((+))))))))..)))))))))”, the Tm was 54.2 °C. The same measure for “CGACGTGCTTCATGTGCTG+CAGCACATGGCGCACGTCG ((((((((..(((((((((+)))))))))..))))))))”: 53 °C; for “CGACGTGCACAATGTGCTG+CAGCACATTAAGCACGTCG ((((((((..(((((((((+)))))))))..))))))))”: 49 °C. The same measure for “CGACGTGCCGGATGTGCTG+CAGCACATTCCGCACGTCG ((((((((.(.((((((((+)))))))).).))))))))”: 54 °C.

Take “CGACGTGCTGAATGTGCTG+CAGCACATGCAGCACGTCG ((((((((((.((((((((+)))))))).))))))))))”: the midpoint of thermal melting (Tm) stood at 59.7 °C.
